According to paper PMC5023729:

Assays:
[1] = molecular target: F380L/F382L double mutant G3BP1 (human) (UniProt Q13283)
[2] = molecular target: FLAG-G3BP1 (human, wild type) (human) (UniProt Q13283)

Row | percentage of cells with SOD1 inclusions in which G3BP1 co-localizes (EGFP-tagged SOD1 and mCherry-tagged G3BP1 in G3BP1-null 293T cells) [1] | percentage of cells with SOD1 inclusions in which G3BP1 co-localizes (EGFP-tagged SOD1 and mCherry-tagged G3BP1 in G3BP1-null 293T cells) [2] | Substance
1 | 36.1% | 86.6% | A4V mutant SOD1-3xHA (natural protein)
2 | 14.7% | 49.1% | A4V/W32S double mutant SOD1 (natural protein)
